Measured values: patent US20230050972A1 (MOMENTA PHARMACEUTICALS, published 2023)
Changes are numbered by the printed parent chain. “And” between values parts separate entries of the source, which are not always exact repeats. Equal values may be shown once.

Key:
[1] = molecular target: T1, in-house generated I domain of α11β1 (human, UniProt Q9UKX5 159-349, limits assumed); test: ELISA on the human α11β1 I domain
T1 construct: domain: I domain; also called human α11β1 I domain; α11β1 I Domain
T1 sequence (looked up): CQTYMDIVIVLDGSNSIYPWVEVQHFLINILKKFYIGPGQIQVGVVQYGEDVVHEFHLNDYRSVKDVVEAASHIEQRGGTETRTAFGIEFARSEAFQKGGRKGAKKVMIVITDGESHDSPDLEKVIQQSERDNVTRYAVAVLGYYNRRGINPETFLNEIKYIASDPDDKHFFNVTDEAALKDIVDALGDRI

[2] = molecular target: T2, human α11β1 expressed on the surface of CHO-K1 cells (human, UniProt Q9UKX5 23-1188); test: FACS on CHO-K1 hu α11β1 cells, estimated EC50
Method: (§1) 200,000 cells (wild-type CHO-K1 cells or CHO-K1 cells expressing human α11) were incubated with each antibody at desired concentrations in FACS buffer for 30 min at 4° C. Then, the cells were washed with FACS buffer and incubated with secondary antibody at 1:100 dilution for 30 minutes at 4° C. Cells were then washed and fixed with 1% PFA in PBS for 20 minutes at room temperature; washed again and read on a cytometer in FACS buffer.
Binding EC₅₀ was estimated using data from Fluorescence-activated cell sorting (FACS) performed with CHO-K1 hu α11β1 cells. Four out of six mAbs tested had EC₅₀ results in the low nanomolar range (8-P20, 8-G15, 8-J17, 8-l14), while the remaining two mAbs were not as potent (9-G05 and 9-E16; both I domain binders).

[3] = molecular target: T3, recombinant human α11β1 (human, UniProt Q9UKX5 23-1141; P05556 21-728); test: ELISA, plate coated with recombinant human α11β1
T3 construct: Coated in ELISA; ELISA and SPR material treated as one molecule; also called HIS-tagged human α11β1; integrin alpha 11 beta 1
Method: (§2) 0.25 μg/mL of target antigen (recombinant human or mouse α11β1) was plated in a 96-well plate over night at 4° C. Plates were washed (PBS with 0.1% Tween-20), blocked (PBS with 2% BSA and 0.05% Tween-20) for 1 hour at room temperature and incubated with a range of antibody concentrations for 1 hour at room temperature. Subsequently, plates were washed and incubated with biotinylated anti-rabbit/mouse/human IgG in a 1:1000 dilution buffer and incubated for 1 hour at room temperature. After washing the plates, Streptavidin HRP was added at 1:200 in dilution buffer and incubated for 1 hour at room temperature. Ultra TMB ELISA substrate solution was added and the plates incubated for 5 minutes on a plate shaker. The reaction was stopped by adding stop solution to each well and plates were read at 450 nm.

[4] = molecular target: T4, recombinant mouse α11β1 (mouse, UniProt P61622 23-1141; P09055 21-728, limits assumed); test: ELISA, plate coated with recombinant mouse α11β1
T4 construct: also called murine α11β1
Method: as §2

[5] = molecular target: T1, in-house generated I domain of α11β1; test: ELISA on the human α11β1 I domain; remark: listed apart in the source
[6] = molecular target: T2, human α11β1 expressed on the surface of …; test: FACS titration on Human CHO-α11 cells
Method: as §1

[7] = molecular target: T3, recombinant human α11β1; test: SPR, HIS-tagged human α11β1 captured by anti-HIS, antibody as analyte, single-cycle kinetics
Method: (§3) The affinity of antibodies for human α11β1 was measured by surface plasmon resonance assay (SPR). Affinity was measured at pH 7.6 and 25° C. with a Biacore T200 instrument. Anti-HIS antibody was immobilized on the SPR sensor surface using EDC/NHS covalent attachment. HIS-tagged human α11β1 was captured on the sensor surface and a single-cycle kinetics assay was used. Increasing concentrations of test antibody were injected in series over the sensor-bound α11β1. Dissociation was monitored for 1000 seconds. A sensor surface with only anti-HIS antibody and a series of blank injections were used to double-reference subtract the data. A 1:1 Langmuir model was fit to the data to estimate the kinetic association and dissociation constants. The affinity (equilibrium dissociation constant) of the interaction was calculated by dividing the kinetic dissociation constant by the kinetic association constant. Between injection cycles α11β1 and bound antibody were removed with an injection of 10 mM glycine at pH 1.5.
The binding affinity of antibodies for the α11β1 Headpiece and α11β1 I Domain as measured by SPR is shown in FIG. 10A and FIG. 10B, respectively.

[8] = molecular target: T3, recombinant human α11β1; test: SPR (Biacore T200), HIS-tagged human α11β1 captured on anti-HIS, single-cycle kinetics, 1:1 Langmuir fit
Method: as §3

[9] = molecular target: Mouse CHO-α11 (mouse, UniProt P61622); test: FACS titration on Mouse CHO-α11 cells
[10] = molecular target: T5, α11β1 on human myofibroblasts (MF) (human, UniProt Q9UKX5 23-1188; P05556 21-798); test: FACS titration on human myofibroblasts
T5 construct: whole, on cells
Method: (§4) Human Pulmonary Fibroblasts (ScienCell) were cultured in complete Fibroblast Growth Medium (ScienCell) until 80% confluent in T-150 flasks. Cells were washed and harvested using Accutase. Cells were seeded into T-150 flasks at 7,500 cells/cm² in complete FGF and cultured for 72 hours. Cells were then washed and starved in serum reduced medium for 24 hours. After starvation, cells were treated with TGFβ-1 (R&D Systems) for 72 hours. Cells were harvested using Accutase and seeded in 96-well conical bottom plates. Cells were blocked with Heat Inactived Fetal Bovine Serum (Gibco) for 30 minutes at 4° C. Cells were then incubated with anti-α11 antibodies at the doses described in each figure for 30 minutes at 4° C. A human anti-α11 antibody (Creative BioLabs) was included as a positive control as well as the appropriate IgG isotype negative controls. Cells were washed twice and incubated with PE conjugated secondary antibodies specific to the IgG class of the anti-α11 antibodies being tested for 30 minutes at 4° C. Cells were washed twice and fixed in 1% PFA for 30 minutes. Cells were acquired on a FACS Verse […]. Data were analyzed by gating on single cells and determining the geometric Mean Fluorescence Intensity (gMFI) in the PE channel for each sample.

[11] = molecular target: T1, in-house generated I domain of α11β1; test: SPR, single-cycle injections of 33, 100 and 300 nM over the a11b1 I Domain
[12] = molecular target: T5, α11β1 on human myofibroblasts (MF); test: FACS on human myofibroblasts
Method: as §4

[13] = molecular target: T3, recombinant human α11β1; test: ELISA on recombinant human α11β1
Method: as §2

T4 sequence (P61622 23-1141 limits assumed, chain 1 of 2): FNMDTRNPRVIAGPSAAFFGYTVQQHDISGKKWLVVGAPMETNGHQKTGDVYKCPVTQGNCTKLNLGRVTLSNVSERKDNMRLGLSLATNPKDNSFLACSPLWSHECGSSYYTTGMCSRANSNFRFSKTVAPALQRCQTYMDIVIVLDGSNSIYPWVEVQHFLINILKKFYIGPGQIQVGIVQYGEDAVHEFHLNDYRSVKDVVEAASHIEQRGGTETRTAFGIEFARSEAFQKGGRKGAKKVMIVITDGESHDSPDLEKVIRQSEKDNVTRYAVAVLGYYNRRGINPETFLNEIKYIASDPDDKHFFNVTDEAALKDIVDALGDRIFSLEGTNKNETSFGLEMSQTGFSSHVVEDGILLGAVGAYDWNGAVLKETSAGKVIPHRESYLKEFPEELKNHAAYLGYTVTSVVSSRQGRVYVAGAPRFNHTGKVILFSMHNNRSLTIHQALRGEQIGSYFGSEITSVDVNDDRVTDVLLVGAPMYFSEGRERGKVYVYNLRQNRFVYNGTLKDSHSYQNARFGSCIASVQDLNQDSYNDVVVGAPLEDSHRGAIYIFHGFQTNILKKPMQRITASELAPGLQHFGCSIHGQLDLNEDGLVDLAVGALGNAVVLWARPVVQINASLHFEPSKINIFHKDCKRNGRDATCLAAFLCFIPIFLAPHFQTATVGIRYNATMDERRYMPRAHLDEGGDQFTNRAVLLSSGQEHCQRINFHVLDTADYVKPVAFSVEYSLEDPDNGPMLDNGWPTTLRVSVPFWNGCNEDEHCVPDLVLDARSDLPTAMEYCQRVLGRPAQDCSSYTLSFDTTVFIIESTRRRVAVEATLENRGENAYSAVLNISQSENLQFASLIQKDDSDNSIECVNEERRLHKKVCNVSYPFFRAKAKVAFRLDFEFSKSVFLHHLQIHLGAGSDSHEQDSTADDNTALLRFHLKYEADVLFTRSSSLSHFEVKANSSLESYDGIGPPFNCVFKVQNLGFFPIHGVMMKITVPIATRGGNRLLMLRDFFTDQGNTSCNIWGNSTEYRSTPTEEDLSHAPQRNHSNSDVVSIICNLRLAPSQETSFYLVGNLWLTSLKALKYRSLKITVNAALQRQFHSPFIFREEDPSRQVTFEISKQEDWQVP
T4 sequence (P09055 21-728 limits assumed, chain 2 of 2): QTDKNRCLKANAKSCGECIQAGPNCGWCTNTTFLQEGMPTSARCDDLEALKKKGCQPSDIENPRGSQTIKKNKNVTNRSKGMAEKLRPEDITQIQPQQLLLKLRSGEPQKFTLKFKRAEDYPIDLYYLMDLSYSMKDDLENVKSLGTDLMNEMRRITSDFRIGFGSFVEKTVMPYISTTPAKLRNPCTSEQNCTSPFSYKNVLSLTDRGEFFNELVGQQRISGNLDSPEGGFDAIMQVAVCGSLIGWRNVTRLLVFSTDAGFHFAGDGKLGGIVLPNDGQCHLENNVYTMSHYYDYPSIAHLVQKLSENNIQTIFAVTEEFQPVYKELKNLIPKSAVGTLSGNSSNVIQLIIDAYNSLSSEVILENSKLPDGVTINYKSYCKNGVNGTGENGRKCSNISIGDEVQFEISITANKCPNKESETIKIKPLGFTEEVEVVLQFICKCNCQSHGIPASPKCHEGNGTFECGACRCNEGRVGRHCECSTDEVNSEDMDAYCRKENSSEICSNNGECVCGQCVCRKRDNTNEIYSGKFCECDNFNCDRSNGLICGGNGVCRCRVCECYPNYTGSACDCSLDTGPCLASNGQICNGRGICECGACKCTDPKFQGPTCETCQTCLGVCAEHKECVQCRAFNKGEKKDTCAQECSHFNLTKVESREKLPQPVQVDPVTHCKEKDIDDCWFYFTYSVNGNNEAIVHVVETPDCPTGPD
T5 sequence (Q9UKX5 23-1188, chain 1 of 2): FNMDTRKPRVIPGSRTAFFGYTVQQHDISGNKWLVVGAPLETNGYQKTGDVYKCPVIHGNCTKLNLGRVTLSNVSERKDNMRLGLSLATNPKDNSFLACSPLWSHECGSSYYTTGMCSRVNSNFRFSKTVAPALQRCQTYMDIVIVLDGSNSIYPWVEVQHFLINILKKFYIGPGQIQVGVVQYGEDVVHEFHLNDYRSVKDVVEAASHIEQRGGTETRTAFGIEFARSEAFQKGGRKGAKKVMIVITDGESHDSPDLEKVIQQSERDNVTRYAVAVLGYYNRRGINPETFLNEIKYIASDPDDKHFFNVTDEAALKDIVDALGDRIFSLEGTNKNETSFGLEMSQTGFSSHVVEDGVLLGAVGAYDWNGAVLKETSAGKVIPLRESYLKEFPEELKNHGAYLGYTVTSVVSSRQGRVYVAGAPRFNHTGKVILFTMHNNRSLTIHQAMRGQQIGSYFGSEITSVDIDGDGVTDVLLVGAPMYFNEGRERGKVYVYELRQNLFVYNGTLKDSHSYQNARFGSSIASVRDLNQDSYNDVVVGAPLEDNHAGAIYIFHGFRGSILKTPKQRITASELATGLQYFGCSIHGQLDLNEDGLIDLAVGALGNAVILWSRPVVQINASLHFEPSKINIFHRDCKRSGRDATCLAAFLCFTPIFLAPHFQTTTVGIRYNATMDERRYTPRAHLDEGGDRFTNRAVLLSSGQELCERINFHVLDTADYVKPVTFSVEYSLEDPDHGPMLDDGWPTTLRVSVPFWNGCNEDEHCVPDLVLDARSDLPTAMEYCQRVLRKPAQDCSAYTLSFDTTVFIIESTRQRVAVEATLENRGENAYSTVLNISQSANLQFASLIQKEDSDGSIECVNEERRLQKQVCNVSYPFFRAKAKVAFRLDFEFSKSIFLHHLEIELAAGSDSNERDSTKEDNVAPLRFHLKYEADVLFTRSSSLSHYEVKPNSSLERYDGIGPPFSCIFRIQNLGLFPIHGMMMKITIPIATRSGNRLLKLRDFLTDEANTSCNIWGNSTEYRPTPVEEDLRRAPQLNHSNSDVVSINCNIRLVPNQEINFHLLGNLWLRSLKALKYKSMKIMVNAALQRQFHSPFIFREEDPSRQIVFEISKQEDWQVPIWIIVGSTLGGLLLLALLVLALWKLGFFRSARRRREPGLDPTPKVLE
T5 sequence (P05556 21-798, chain 2 of 2): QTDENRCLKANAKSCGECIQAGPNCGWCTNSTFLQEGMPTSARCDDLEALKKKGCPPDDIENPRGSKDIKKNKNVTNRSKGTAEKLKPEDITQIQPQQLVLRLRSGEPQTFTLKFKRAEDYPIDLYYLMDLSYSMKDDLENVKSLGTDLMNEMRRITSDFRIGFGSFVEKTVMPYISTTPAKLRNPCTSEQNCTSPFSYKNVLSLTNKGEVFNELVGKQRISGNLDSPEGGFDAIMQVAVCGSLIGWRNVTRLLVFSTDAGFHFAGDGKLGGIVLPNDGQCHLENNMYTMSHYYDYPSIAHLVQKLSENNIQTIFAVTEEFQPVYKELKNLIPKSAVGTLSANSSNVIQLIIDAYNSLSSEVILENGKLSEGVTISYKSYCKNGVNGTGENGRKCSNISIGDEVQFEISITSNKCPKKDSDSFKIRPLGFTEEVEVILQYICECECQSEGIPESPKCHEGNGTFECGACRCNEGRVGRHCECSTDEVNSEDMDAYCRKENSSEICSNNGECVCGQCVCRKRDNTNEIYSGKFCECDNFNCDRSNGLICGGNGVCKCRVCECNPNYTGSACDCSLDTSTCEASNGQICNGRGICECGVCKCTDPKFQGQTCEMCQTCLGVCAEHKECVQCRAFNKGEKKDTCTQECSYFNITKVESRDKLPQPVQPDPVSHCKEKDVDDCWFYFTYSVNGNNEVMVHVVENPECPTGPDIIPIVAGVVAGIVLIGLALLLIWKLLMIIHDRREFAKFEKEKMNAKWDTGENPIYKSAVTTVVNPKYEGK
T2 sequence (Q9UKX5 23-1188): as the sequence (Q9UKX5 23-1188, chain 1 of 2) above
Sequence of Mouse CHO-α11 (P61622 23-1188): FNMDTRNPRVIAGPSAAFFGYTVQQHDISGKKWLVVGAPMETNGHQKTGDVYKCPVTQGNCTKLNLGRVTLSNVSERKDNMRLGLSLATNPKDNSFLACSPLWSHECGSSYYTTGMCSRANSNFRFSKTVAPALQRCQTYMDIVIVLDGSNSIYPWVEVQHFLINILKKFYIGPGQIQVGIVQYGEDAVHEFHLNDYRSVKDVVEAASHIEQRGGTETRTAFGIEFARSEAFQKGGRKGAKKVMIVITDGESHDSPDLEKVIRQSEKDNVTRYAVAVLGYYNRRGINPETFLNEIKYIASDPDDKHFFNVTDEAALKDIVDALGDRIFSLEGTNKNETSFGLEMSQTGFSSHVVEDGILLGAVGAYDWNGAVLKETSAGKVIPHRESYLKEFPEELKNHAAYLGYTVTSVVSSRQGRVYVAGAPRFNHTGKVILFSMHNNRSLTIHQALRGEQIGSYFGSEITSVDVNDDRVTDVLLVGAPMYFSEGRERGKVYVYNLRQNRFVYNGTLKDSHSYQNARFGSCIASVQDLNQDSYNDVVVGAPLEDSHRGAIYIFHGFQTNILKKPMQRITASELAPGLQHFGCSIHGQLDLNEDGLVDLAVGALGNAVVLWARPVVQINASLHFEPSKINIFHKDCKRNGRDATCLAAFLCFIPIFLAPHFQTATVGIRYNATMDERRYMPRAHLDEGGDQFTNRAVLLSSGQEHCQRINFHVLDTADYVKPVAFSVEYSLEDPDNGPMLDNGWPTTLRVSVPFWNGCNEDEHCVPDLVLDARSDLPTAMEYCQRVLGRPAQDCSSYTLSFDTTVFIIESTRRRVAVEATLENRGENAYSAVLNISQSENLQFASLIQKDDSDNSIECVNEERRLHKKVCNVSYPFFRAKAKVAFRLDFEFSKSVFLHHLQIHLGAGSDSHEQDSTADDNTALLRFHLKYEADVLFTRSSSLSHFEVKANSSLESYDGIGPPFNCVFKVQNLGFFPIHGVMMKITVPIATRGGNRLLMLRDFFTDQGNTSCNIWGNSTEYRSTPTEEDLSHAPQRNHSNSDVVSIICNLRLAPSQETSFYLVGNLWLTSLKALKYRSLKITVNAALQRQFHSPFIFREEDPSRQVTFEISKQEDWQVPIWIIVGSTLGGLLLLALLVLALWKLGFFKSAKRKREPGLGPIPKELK

B1: 8-G15 (antibody, V domains shown)
VH: EVQLQQSGPELVKPGASVRISCKASGYTFTDYYIHWVKQKPGQGLECIGEIYPGTDNTYYSKKFRGKATLTADKSSDTAYMQLSSLTSEDSAVYFCARGDYYRGYFDVWGAGTTVTVSS
VL: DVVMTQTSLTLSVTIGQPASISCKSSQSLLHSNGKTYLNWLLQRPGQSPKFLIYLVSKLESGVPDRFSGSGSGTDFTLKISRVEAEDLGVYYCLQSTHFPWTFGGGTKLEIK
notes: mouse hybridoma IgG
**Q.** Does B1 bind [1]?
**A.** no binding (tested: 1 µg/mL)

**Q.** What about the EC50 [2] of the same binder?
**A.** 0.22 µg/mL and 1.5 nM

**Q.** What about the “EC50 (read off the curve)” value [3] of the same binder?
**A.** ~0.03 ng/mL

**Q.** Does B1 bind [4]?
**A.** no binding (tested: 1 µg/mL)

B2: 8-P20 (antibody, V domains shown)
VH: KVMLVESGGALVKPGGSLKLSCVASGFTFSNYAMSWVRQTPEKRLEWVATISSGGYYTYYPDSVKGRFTISRDNARNTLFLQMSSLRSEDTAMFYCAREDDYGRYSYTMDYWGQGTSVTVSS
VL: DVVMTQTPLSLPVSLGDQVSISCRCSQSLVHSNGNTYLHWYLQKPGQSPQLLIYKISNRFSGVPDRFSGSGSGTDFTLKISRVEAEDLGVYFCSQSTHVPYTFGGGTELEIK
notes: mouse hybridoma IgG
**Q.** Does B2 bind [1]?
**A.** no binding (tested: 1 µg/mL)

**Q.** What about the EC50 [2] of the same binder?
**A.** 0.12 µg/mL and 0.8 nM

**Q.** And the “EC50 (read off the curve)” value [3]?
**A.** ~0.03 ng/mL

**Q.** Does B2 bind [4]?
**A.** no binding (tested: 1 µg/mL)

B3: 8-J17 (antibody, V domains shown)
VH: QVQLQQSGAELAKPGASVKMSCKASGYTFTNYWMHWVKQRPGQGLEWIGYINPNNGYTEYNQRFKDKATLTADRSSTTAYMQLSSLTSEDSAVYYCARSDIITTDYWGQGTTLTVSS
VL: B2 VL with V19A, C25S, H31Y, Q50K, I56V, Y101W, E108K
notes: mouse hybridoma IgG
**Q.** Does B3 bind [1]?
**A.** no binding (tested: 1 µg/mL)

**Q.** What about the EC50 [2] of the same binder?
**A.** 0.33 µg/mL and 2.2 nM

**Q.** What about the “EC50 (read off the curve)” value [3] of the same binder?
**A.** ~0.1 ng/mL

**Q.** Does B3 bind [4]?
**A.** no binding (tested: 1 µg/mL)

B4: 8-I14 (antibody, V domains shown)
VH: EVQLQQSGPELVKPGASVKKSCKASGYTFTDYYMHWVKQKPGQGLEWIGKIYPGSGNTHYNEKFKGKATLTADKSSSTAYMQLSSLTSEDSAVYFCATNYYGYRAMNYWGQGSSVTVSS
VL: DIHLTQSPSSLSASLGERISLTCRASQDIYISLNWFQQKPDGTIKLLIYGTSSLDSGVPKRFSGSRSGSDYSLTISSLESEDFADYYCLQYASSPYTFGGGTKLEIK
notes: mouse hybridoma IgG; also called 8-l14; 8114
**Q.** What does the source list for B4?
**A.** binding result [1]: no binding (tested: 1 µg/mL); EC50 [2]: 1.22 µg/mL and 8.1 nM; EC50 (read off the curve) [3]: ~0.2 ng/mL; EC50 (read off the curve) [4]: ~6 ng/mL

B5: 40G10H11 (antibody, V domains shown)
VH: AVQLVESGGGLVQPGRSLKLSCAASRITFTDYYMAWVRQAPTKGLEWVATISSDGGDTFYRDSVKGRFTISRDNAKSTLYLQMVSLRSEDTATYYCSTDRGAQFGYWGQGTLVTVSS
VL: DIQMTQSPSFLSASVGDRVSINCKASQNVHENLNWYQQKLGEAPKRLIYNTNNLQTGIPSRFSGSGSGADYTLTISSLQPEDFATYFCLQHNAFPYTFGPGTKLELK
notes: rat hybridoma mAb
**Q.** Does B5 bind [5]?
**A.** no binding (tested: 2 µg/ml)

B6: 9-G05 (antibody, V domains shown)
VH: EVQLQQSGPELVKPGASVKIPCKASGYTFPDYNMDWVKQSHGKSLEWIGYINPDNGGTIYNQKFKGKATLTVDKSSSTAYMELRSLTSEDTAVYYCARLDSSGYGYYAMDYWGQGTSVTVSS
VL: DIVLTQSPASLAVSLGQRATISCRASESVDNYGISFMHWYQQKPGQPPKLLIYRASNLDSEIPARFSGSGSRTDFTLTIDPVETDDVATYYCQQSYKDPRTFGGGTKLEIK
notes: mouse hybridoma IgG
**Q.** Which “EC50 (read off the curve)” value [1] does the source give for B6 here?
**A.** ~0.3 ng/mL

**Q.** And the EC50 [2]?
**A.** 21 µg/mL and 140 nM

**Q.** And the EC50 [6]?
**A.** 187 nM

**Q.** And the “EC50 (read off the curve)” value [3]?
**A.** ~10 ng/mL

**Q.** What about the “EC50 (read off the curve)” value [4] of the same binder?
**A.** ~30 ng/mL

**Q.** And the Kd [7]?
**A.** 2.85 nM

**Q.** And the koff [8]?
**A.** 4.99e-05 s⁻¹

**Q.** And the kon [8]?
**A.** 17500 M⁻¹ s⁻¹

B7: 1994_01_C07 (antibody, V domains shown)
VH: QVQLVQSGAEVKKPGASVKVSCKASGYTFTSYGISWVRQAPGQGLEWMGWISAYNGNTNYAQKLQGRVTMTTDTSTSTAYMELRSLRSDDTAAYYCARVTGITGTTIDPWGQGTMVTVSS
VL: DIQMTQSPSSLSASVGDRVTITCRASQSISSYLNWYQQKPGKAPKLLIYDASSLESGVPSRFSGSGSGTEFTLTISSLQPDDFAVYYCQQYNNWPQTFGQGTKVEIK
notes: fully human, from phage display, scFv converted to IgG; kappa
**Q.** B7 was tested. Which EC50 [6] did it give?
**A.** 7.75 nM

**Q.** What about the EC50 [9] of the same binder?
**A.** 29 nM

**Q.** And the EC50 [10]?
**A.** 0.53 µg/mL and 3.5 nM

**Q.** Does B7 bind [11]?
**A.** no binding (tested: 300 nM)

**Q.** What about the Kd [7] of the same binder?
**A.** 0.77 nM

**Q.** And the koff [8]?
**A.** 0.000289 s⁻¹

**Q.** What about the kon [8] of the same binder?
**A.** 374000 M⁻¹ s⁻¹

B8: 24E4G6 (antibody, V domains shown)
VH: EVQLVESGGSLVQPGGSLKLSCVASGYTFSNYWMDWVRQSPGKSLEWIGEINTDGRRTNYAPSIKDRFTISRDNAKSTLYLQMSNVKSDDTAIYYCTILRVYPHYFDYWGQGVMVTVSS
VL: DVVMTQTPPSLSVAIGQSVSISCKSSQSLVYSDGETYLHWFLQSPGRSPKRLIYHVSNLGSGVPDRFSGTGSLTDFTLRISRVEAEDLGVYYCAQTTHFPPTFGAGTKLELK
notes: rat hybridoma mAb
**Q.** Does B8 bind [12]?
**A.** binds

**Q.** Does B8 bind [13]?
**A.** binds

**Q.** Does B8 bind [5]?
**A.** no binding (tested: 2 µg/ml)
